This passage reports Kd results from article PMC3549490.

The target in the assay is UNC-45 (C. elegans), full-length recombinant protein (C. elegans). In words: ITC.

With EDASRMEEVD [Hsp90 (DAF-21) C-terminal peptide …], the Kd amounted to 14 µM. On to AGGPTIEEVD [Hsp70 (HSP-1) C-terminal peptide …], for which the Kd was found to be 120 µM.

Usually Kd stands for the equilibrium constant for the complex coming apart.
